In assay [1] the test system is Human full-thickness skin equivalents (MatTek Epiderm FT co-culture tissue models). Nature of the assay: Type I collagen production in human full-thickness skin equivalents (pro-collagen type I C-peptide ELISA). It is filed as cell-based. Particulars: polypeptide 0.1% w/w, FIG. 18; for production of type I collagen as compared to untreated cells: each agent alone, day 4, retinol (10, unit not given), ascorbic acid 2% w/w, hyaluronic acid 0.1% w/w. On the procedure:
Human full-thickness skin equivalents (MatTek Epiderm FT co-culture tissue models) which contain keratinocytes and fibroblasts were treated with a 0.1% w/w truncated human type 21 collagen polypeptide (having an amino acid sequence of SEQ ID NO: 16) (“C21”; FIG. […] Culture medium was changed every 2 days. On day 4, supernatant was collected and analyzed by enzyme-linked immunosorbent assay (ELISA) for pro-collagen type I C-peptide, which is a readout for total secreted collagen type I protein.

The test system is the same in assay [2]. In words: Fibronectin production in human full-thickness skin equivalents (ELISA). Particulars: polypeptide 0.1% w/w, FIG. 19; for production of fibronectin as compared to untreated cells: each agent alone, day 4, retinol (10, unit not given), ascorbic acid 2% w/w, hyaluronic acid 0.1% w/w. The format is cell-based. In general terms: An ELISA detects its analyte on a solid surface through an enzyme-linked reagent.

Assay [3] shares this test system. In words: Elastin production in human full-thickness skin equivalents (ELISA). The format is cell-based. The settings on record: polypeptide 0.1% w/w, retinol (10, unit not given), ascorbic acid 2% w/w, FIG. 20; for increase of elastin production relative to untreated control: day 2 supernatant; for production of elastin as compared to untreated cells: each agent alone, day 2, hyaluronic acid 0.1% w/w. An excerpt: The combination of the truncated human type 21 collagen polypeptide with retinol increased elastin production by 45% relative to untreated control. This appeared to be a synergistic effect as treatment with truncated human type 21 collagen polypeptide alone increased elastin production by 20% and treatment with retinol alone increased elastin production by 17%. The combination of the truncated human type 21 collagen polypeptide with ascorbic acid increased elastin production by 33% relative to untreated control. This appeared to be a synergistic effect as treatment with truncated human type 21 collagen polypeptide alone increased elastin production by 20% and treatment with ascorbic acid alone increased elastin production by 5%.

For assay [4] the test system is unchanged. In words: Type III collagen production in human full-thickness skin equivalents (pro-collagen type III N-peptide ELISA). It is filed as cell-based. Particulars: polypeptide 0.1% w/w, ascorbic acid 2% w/w, FIG. 21; for production of type III collagen as compared to untreated cells: each agent alone, day 2, retinol (10, unit not given), hyaluronic acid 0.1% w/w.

The nature of assay [5]: Oxygen radical absorbance capacity (ORAC) assay, cell-free. It is filed as biochemical. Particulars: for anti-oxidative capacity (ORAC): FIG. 25. On the procedure: The antioxidant potential of a polypeptide of SEQ ID NO: 16 was assessed using the oxygen free radical absorbance capacity (ORAC) assay. The ORAC assay is a cell-free assay that uses a fluorescent readout to measure a product's antioxidant capacity. Data is reported in Trolox (Vitamin E) equivalents.
A polypeptide of SEQ ID NO: 5 was also evaluated in the ORAC assay.
An oxygen radical absorbance capacity (ORAC) assay was performed to analyze the anti-oxidative capacity of a polypeptide according to SEQ ID NO: 52. The ORAC assay is a cell-free assay that uses a fluorescent readout to measure anti-oxidative capacity. Data is reported in Trolox (Vitamin E) equivalents (TEs).

Assay [6] relates to in vitro full thickness human skin tissue model (MatTek). Nature of the assay: Collagen type I secretion by full thickness human skin tissue model (pro-collagen type I C-peptide ELISA). The format is cell-based. Particulars: treatment 48 hours, fresh media another 48 hours (96 hour timepoint); compared with untreated tissue models or positive control Vitamin B3; FIG. 10. On the procedure: A series of in vitro experiments were conducted to assess the effects of a truncated jellyfish collagen on human skin fibroblasts and keratinocytes. An in vitro full thickness human skin tissue model (MatTek) which contains fibroblasts and keratinocytes was evaluated for collagen type I secretion after treatment with a polypeptide of SEQ ID NO: 5 for 48 hours. The tissue models were then rinsed and incubated with fresh media for another 48 hours (96 hour timepoint). The culture supernatants were analyzed by ELISA for pro-collagen type I C-peptide (a readout for total secreted collagen type I protein).

Assay [7] deals with human primary keratinocytes. In words: Thymine dimers in UVB-irradiated keratinocytes (OxiSelect UV-Induced DNA Damage ELISA). It is filed as cell-based. Particulars: 25 mJ/cm^2 UVB, then overnight with 0.03%; compared with untreated cells; FIG. 11. On the procedure:
In a further study, human primary keratinocytes were irradiated with 25 mJ/cm^2 UVB light, then incubated overnight in media with 0.03% of a polypeptide of SEQ ID NO: 5. DNA was extracted from the cells and analyzed for levels of thymine dimers (an indicator of DNA damage) using an OxiSelect UV-Induced DNA Damage ELISA kit.

For assay [8], the system named is human primary keratinocytes. Nature of the assay: MTT viability of UVB-irradiated keratinocytes, post-irradiation treatment. It is filed as cell-based. Particulars: 40 mJ/cm^2 UVB, then 48 hours with 0.03%; compared with untreated UVB-irradiated keratinocytes; FIG. 12. Here is the method: Human primary keratinocytes were irradiated with 40 mJ/cm^2 UVB light, then incubated for 48 hours in media with 0.03% of a polypeptide of SEQ ID NO: 5. Cell viability was evaluated using the MTT metabolic colorimetric assay.

Assay [9] has as its system human primary keratinocytes. In words: MTT viability of keratinocytes exposed to urban dust. The format is cell-based. The settings on record: pre-treated with 0.03% for 24 hours, then 2 mg/ml urban dust (NIST 1649B) for 24 hours; compared with untreated exposed keratinocytes; FIG. 13. Here is the method: To test for protection from urban dust, human primary keratinocytes were pre-treated with 0.03% of a polypeptide of SEQ ID NO: 5 for 24 hours, and then exposed to 2 mg/ml urban dust (NIST 1649B) for 24 hours. Cell viability was evaluated using the MTT metabolic colorimetric assay.

Assay [10] deals with in vitro full thickness human skin tissue model (MatTek). Nature of the assay: IL-la ELISA in UVB-irradiated full thickness human skin tissue model. It is filed as cell-based. The settings on record: 300 mJ/cm^2 UVB, then 0.01% for 24 hours; compared to untreated UVB-irradiated control; FIG. 14. On the procedure: In a further study with the in vitro full thickness human skin tissue model (MatTek), the MatTek tissue models were irradiated with 300 mJ/cm^2 UVB light, then treated with 0.01% of a polypeptide of SEQ ID NO: 5 for 24 hours. Levels of pro-inflammatory cytokine IL-la was determined by ELISA.

The subject of assay [11] is facial skin. Nature of the assay: Facial skin hydration, clinical study of Example 7. The settings on record: topical facial cream 0.05%, n=18, FIG. 16. The format is in vivo, human. An excerpt: (§1) In a clinical study (n=18 subjects), subjects used a topical facial cream containing 0.05% of a polypeptide of SEQ ID NO: 5 for 2 weeks.
In assay [12] the test system is facial skin. In words: Cutometer facial skin elasticity, clinical study of Example 7. It is filed as in vivo, human. The settings on record: topical facial cream 0.05%, n=18, FIG. 17.
Description: as §1

Assay [13] deals with human primary fibroblasts. Nature of the assay: Fibroblast collagen type I protein secretion with truncated elastin (pro-collagen type I C-peptide ELISA). The format is cell-based. The settings on record: 48 hours, compared with untreated control fibroblasts, FIG. 24. Here is the method: Fibroblasts are the main source of the extracellular matrix peptides, including the structural proteins collagen and elastin. Human primary fibroblasts were evaluated for collagen type I protein secretion. Fibroblasts were cultured with a polypeptide according to SEQ ID NO: 52 for 48 hours. The culture supernatants were analyzed by ELISA for pro-collagen type I C-peptide, a readout for total secreted collagen type I protein.

A further assay has as its system Keratinocytes. In words: Clariom microarray global gene expression in keratinocytes. The format is cell-based. Particulars: 0.03% w/w solution, 24 hours, relative to untreated cells. On the procedure:
Keratinocytes were incubated for 24 hours with media alone or with 0.03% w/w solution of a polypeptide according to SEQ ID NO: 52. RNA was extracted from the cells and analyzed by Clariom microarray (ThermoFisher) for global gene expression.
Keratinocytes were incubated for 24 hours with media alone (untreated) or with 0.03% w/w solution of a polypeptide according to SEQ ID NO: 52. RNA was extracted from the cells and analyzed by Clariom microarray (ThermoFisher) for global gene expression.

Assay [14] has as its system Human primary fibroblast cultures. In words: Fibroblast elastin production (ELISA kit). It is filed as cell-based. Particulars: 0.03% w/w solution; 24 hours; compared to media alone; FIG. 28. On the procedure: Human primary fibroblast cultures were treated for 24 hours with media alone (untreated) or with 0.03% w/w solution of a polypeptide having an amino acid sequence according to SEQ ID NO: 52. Supernatants were collected and evaluated for elastin production using an ELISA kit.

The mark [15] stands for this setting: day 4 supernatant, hyaluronic acid 0.1% w/w (low molecular weight, 15-40 kDa).

These results are taken from patent publication US20230364000A1, “COMPOSITIONS COMPRISING COMBINATIONS OF COLLAGEN OR ELASTIN POLYPEPTIDES WITH ACTIVE INGREDIENTS AND METHODS OF USING SAME” (Geltor, Inc., priority 2020, published 2023).

For `O=C1O[C@H]([C@@H](O)CO)C(O)=C1O` [ascorbic acid], the “production of type I collagen as compared to untreated cells” value in [1] is given as “increased production”. The “production of fibronectin as compared to untreated cells” value in [2] is reported as “increased production”. Also, in [3], the “increase of elastin production relative to untreated control” value is 5% and the “production of elastin as compared to untreated cells” value was “increased production”. For the same molecule, the “increase of type III collagen production relative to untreated control” value in assay [4] (day 2 supernatant) is recorded as 80%. Further, in assay [4], the “production of type III collagen as compared to untreated cells” value is “increased production”.
On to `CC1=C(/C=C/C(C)=C/C=C/C(C)=C/CO)C(C)(C)CCC1` [retinol], for which, in [1], the “production of type I collagen as compared to untreated cells” value was “increased production”. Also, in [2], the “production of fibronectin as compared to untreated cells” value is listed as “increased production”. Also, in [3], the “increase of elastin production relative to untreated control” value is 17% and the “production of elastin as compared to untreated cells” value was “increased production”. In assay [4], the “production of type III collagen as compared to untreated cells” value was “increased production”.
With hyaluronic acid, in [1] (setting [15]), the “increase of type I collagen production relative to the untreated control” value was 72%. Further, in assay [1], the “production of type I collagen as compared to untreated cells” value is given as “increased production”. The “increase of fibronectin production relative to untreated control” value in assay [2] (setting [15]) was 30%. In assay [2], the “production of fibronectin as compared to untreated cells” value is on record as “increased production”. Moreover, the “production of elastin as compared to untreated cells” value in assay [3] is on record as “increased production”. The “production of type III collagen as compared to untreated cells” value in assay [4] is “increased production”.

B1: SEQ ID NO: 5: truncated jellyfish collagen without a His tag, linker, and thrombin cleavage site (protein)
chain: GPQGVVGADGKDGTPGNAGQKGPSGEPGSPGKAGSAGEQGPPGKDGSNGEPGSPGKEGERGLAGPPGPDGRRGETGSPGIAGALGKPGLEGPKGYPGLRGRDGTNGKRGEQGETGPDGVRGIPGNDGQSGKPGIDGIDGTNGQPGEAGYQGGRGTRGQLGETGDVGQNGDRGAPGPDGSKGSAGRPGLR
In the case of B1, in [5] (0.1% solution), the “antioxidant properties, Trolox (Vitamin E) equivalents” value is reported as 193 μM Trolox. Further, the “secreted collagen type I (pro-collagen type I C-peptide)” value in assay [6] is given as “higher levels”. For the same molecule, in assay [7], the “level of thymine dimers (DNA damage)” value was “lower level”. Also, in assay [8], the “cell viability (MTT)” value was “higher cell viability”. In [9], the “cell viability (MTT) after urban dust exposure” value is “higher cell viability”. The “levels of IL-la” value in assay [10] is on record as “lower levels”. The skin hydration entry in the assay with facial skin [11] (1 week vs baseline) and in the assay on facial skin [11] (2 weeks vs baseline) was “increased” each time. Besides, in the assay on facial skin [11] (baseline, 1 week and 2 weeks), the “skin hydration relative to topical application of marine collagen” value is “increased skin hydration”. The “skin elasticity (cutometer)” value with facial skin [12] (1 week vs baseline) and with facial skin [12] (2 weeks vs baseline) was “increased” throughout.

B2: SEQ ID NO: 52: 13 kDa non-naturally occurring truncated human elastin without the DsbA secretion tag (protein)
chain: AGLGGVPGVGGLGVSAGAVVPQPGAGVKPGKVPGVGLPGVYPGGVLPGARFPGVGVLPGVPTGAGVKPKAPGVGGAFAGIPGVGPFGGPQPGVPLGYPIKAPKLPGGYGLPYTTGKLPYGYGPGGVAGAAGKAGYPTGTGVGPQ
As to B2, the “anti-oxidative capacity (ORAC)” value in assay [5] (0.0125% w/w solution), in assay [5] (0.025% w/w solution), in [5] (0.05% w/w solution), in [5] (0.1% w/w solution) and in assay [5] (0.2% w/w solution) was “anti-oxidative properties” throughout. For the same molecule, the “anti-oxidative properties, Trolox (Vitamin E) equivalents” value in assay [5] (0.2% w/w solution) came out at 228 μM Trolox. Further, the “secreted collagen type I (pro-collagen type I C-peptide)” value in assay [13] (0.025% w/w solution), in assay [13] (0.05% w/w solution) and in assay [13] (0.1% w/w solution) was “higher levels” each time. In addition, in the assay with Keratinocytes (FIG. 26), the “expression of antioxidant genes, including SOD2, GPX2, GPX4, GSTK1, GSTZ1, GSTA4, GSTM2, CCS, GPX1, GLRX, PRDXS, PRDX6, and PRDX2” value is given as “upregulated”. Also, the “expression of pro-apoptotic genes, including APAF1, BAK1, CASP7, CASP8, FADD, MCL1, and MET” value in the assay with Keratinocytes (FIG. 27) was “downregulated”. The production of elastin result in assay [14] is reported as “increased production”.
